Laboratory results published in a protein production outcome set (Wang et al. 2014).

experiment: label from the status in PepcDB records

Sequence | protein production
MALMTNKTRALLIGGHGKVALLATPMLIDASVQVTSMYRNPDHRSEIEALGATTLERDVTTLSVEDWADLLKDFDVVVWSAGNGGKNGADATYAIDRDAAIASIDGAASLGEKAPRYIMVSYIGSSTHTIDPSASFYPYAESKKAADEHLSSTNLDYLILAPAALTLDEVNGVEVIADTNEAAAGRTTSRVLVAEVITEFVVRDFPQTRVLPFVDGESPVSSIS | failed
MALMTNKTRALLIGGHGKVALLATPMLIDASVQVTSMYRNPDHRSEIEALGATTLERDVTTLSVEDWADLLKDFDVVVWSAGNGGKNGADATYAIDRDAAIASIDGAASLGEKAPRYIMVSYIGSSTHTIDPSASFYPYAESKKAADEHLSSTNLDYLILAPAALTLDEVNGVEVIADTNEAAAGRTTSRVLVAEVITEFVVRDFPQTRVLPFVDGLEHHHHHH | failed
MALQTEQFNANILRNGEWVESRTGERISISAPASGVALGSIPALSQEEVNDAIQGAKDAQKIWKIRPIHERVDLLYAWADLLEERKEIIGELIMHEVAKPKKSAIGEVSRTADIIRHTADEALRLNGETLKGDQFKGGSSKKIALVEREPLGVVLAISPFNYPVNLAAAKIAPALVTGNTVVFKPATQGSLSGIKMVEALADAGAPEGIIQVVTGRGSVIGDHLVEHPGIDMITFTGGTTTGERISEKAKMIPVVLELGGKDPAIVLDDADLKLTASQIVSGAFSYSGQRCTAIKRVFVQDSVADQLVANIKELVEQLTVGSPEDDADITPVIDEKSAAFIQGLIDDALENGATLLSGNKRQGNLLSPTLLDDVTPAMRVAWEEPFGPVLPIIRVKDANEAISLSNQSDYGLQASIFTKDTDRAINIGKHLEVGTVHINAKTERGPDHFPFLGVKKSGLGVQGIKPSLLSMTRERVTVLNL | not failed
MALSDTKLRKIKAPYNGEAELADRDGLSVRVSPKALITFNYRFRWEGKQQRIKLGRYPGLKLIDARKKVNEYRHNLDEGLDPRVVQNESRSHNLFGDMCEAFMTKYVMTELRPKTQTLYKSTFNKYVTPYKNIDIERYKYTDWIAYFDWVKKESSSANAGSVLKRFKAVANWAKARGQIKHSHLIDIPIKAIGSHQQKRERCLEWDEVIGLWRQIESSKSTPQCKTCIQLLLLTGARNAEIREARRDEFDLDKNIWLLPPERSKTKKQVRRPLSTGVIELINKLDLIYGQDREYLIAGDIKGKPLTTHAVNRFVQRMNNHLKYPHFVPHDFRRTIVTRLSEHKVELHVTEKMLGHELGGILTRYNKHDWIDEQREAYELYWQKVTLLLKN | failed
MALTATVDVELKIRHSVPQRREPTKWRRIMYAITGITGKVGGAMARALLAAGQPVRAIVRDATKGRQWAALGCDVAIATMEDAEALTQAFKGATAVFILPPPVFDPEPFYPEAQAVIDSVATALRAAKPARVVCLSTVGADAVQDNLLSQHTKMETALSALPLALTLLRPAWFLDNVAWDVSSARGAGLIHSFLAPTGRALPMVAAEDVGRVAATLIQQDWSGTRIVELEGPERVSPDDLAAAFTTVLGKPVRAVPVPRETWEALFRSQGMRNPQPRMRMLDGFNEGWIAFADEARTIKGTISATTVVQALVAGEGA | failed
MALVYLVQSDTTIGLLSKDSEKLNALKGRPKNQSVLIESADFSTLKSLVRAPNAFKNLIRRSAKTTFIYPNSKAVRVIRGRHGDFLNRFKTLYSTSANLTQCAYDKEIASNLADVIVSDERGLFESSSSKIFRLYKDKKVRIR | failed
MALWMDAGATPTTEKEKADLEAISALKESTAIEFKEEGNECVRKGKKHYSEAIDCYTKAISQGVLSDSETSILFSNRSHVNLLLGNYRRALTDAEESMRLSPHNVKAVYRAAKASMSLDLLNEAKSYCEKGIENDPSNEDMKKLLKLVNSKKQEKEQHEAQASQAVVEAKACLSAIENRGVKIGKAMYRELTGLKKPMLDKNNILHWPVLLLYAEAMTSDFVEDFCETDMFATHLDMMFSEDSPPLPWDKNNEYSRDVIELYYEASSGTPLPRSRVLQYLLEGTKGSQAETTGEEDTSATKTPSYLKGSSGMVKVNERRTLHDVLKEPKFVIPEIPVFYIVSKRSKFYKDFTAGKWTPPN | failed
MAMAVPVSARPQSPAEGFYAINNQFQTNGPKGFSEIKILANEDMFLRMDLPGVPDEGGLSVYHNRSQETVVVFAKAPKVHTHDSTERRYQTMTGIGCSCCAISSITTHMSDGVFRVILSKTRIDPHRSPCTDPALTGPVLQPHPLAFPQPTMAYESKQLPNGKLFVRADMPGVPKENFTVSVTNGRVKVTGQAPAVSHDSSGRFYSGDVAMLSTPVDIPSRRIKTIAKNGVIRLLIPPF | failed
MAMSVKTISPIEAHRLVTGGRAVLVDVRERHEIAREHIDGAIELPLTGFKHGDLGAAHGRKAIFFCHSGGRTRMYAGQIDAKARGVCEPYVLGGGILAWRRAGFPTVQGPKPPSLFQRLFGRKPAD | failed
MANAVVAIAGSSGLIGSALTAALRAADHTVLRIVRRAPANSEELHWNPESGEFDPHALTDVDAVVNLCGVNIAQRRWSGAFKQSLRDSRITPTEVLSAAVADAGVATLINASAVGYYGNTKDRVVDENDSAGTGFLAQLCVDWETATRPAQQSGARVVLARTGVVLSPAGGMLRRMRPLFSVGLGARLGSGRQYMSWISLEDEVRALQFAIAQPNLSGPVNLTGPAPVTNAEFTTAFGRAVNRPTPLMLPSVAVRAAFGEFADEGLLIGQRAIPSALERAGFQFHHNTIGEALGYATTRPG | failed
MANHKPEIVITYCTQCQWLLRAAWLAQELLSTFADDLGRVALEPGTGGIFRITCNGVQIWERKADGGFPEAKVLKQRVRDQVDPQRDLGHNDR | not failed
MANIAVQRIKREFKEVLKSEETTKNQIKVDLVDENFTELRGEIAGPPDTPYEGGRYQLEIKIPETYPFNPPKVRFITKIWHPNISSVTGAICLDILKDQWAAAMTLRTVLLSLQALLAAAEPDDPQDAVVANQYKQNPEMFKQTARLWAHVYAGAPVSSPEYTKKIENLCAMGFDRNAVIVALSSKSWDVETATELLLSN | not failed
MANLKVGDVLEDRYRIETPIARGGMSTVYRCLDLRLGRSMALKVMEEDFVDDPIFRQRFRREARSMAQLNHPNLVNVYDFSATDGLVYLVMELITGGTLRELLAERGPMPPHAAVGVMRGVLTGLAAAHRAGMVHRDIKPDNVLINSDHQVKLSDFGLVRAAHAGQSQDNQIVGTVAYLSPEQVEGGEIGPASDVYSAGIVLFELLTGTTPFSGEDDLDHAYARLTEVVPAPSSLIDGVPSLIDELVATATSINPEDRFDDSGEFLSALEDVATELSLPAFRVPVPVNSAANRANAQVPDAQPTDMFTTHIPKTPEPDHTAIIPVASANETSILPAQNMAQNMAQNPLQPPEPDFAPEPPPDTALNIQDQELARADEPEINTVSNRSKLKLTLWSIFVVAVIAAVAVGGWWFGSGRYGEIPQVLGMDEVQAVAVVEEAGFVAVAEPQYDNEVPTGSIIGTEPSFGERLPRGEDVSVLVSQGRPVVPDLSEDRSLSTVREELEQRTFVWVDGPGEYSDDVPEGQVVSFTPSSGTQLDVGETVQIHLSRGPAPVEIPDVSGMGVDQATRVLERAGLSVERTEEGFDAETPNGDVYGTSPKVSTEVKRGTSVVLQVSNAISVPDVVGMTKDEATAALAEEGLVVASTSIIPGEAASSADAVVTVEPESGSRVDPAHPQVSLGLAGEIQVPSVVGRKVSDARSILEEAGLTLTTDADDNDRIYSQTPRARSEVSVGGEVTVRAF | failed
MANQLDASVKDDLKTQFVTREGTYRLLTLSEYSRPNRVGYSSNQSSPQVRVSMVTLPSPAQGKLGSDVGVGTPVGGGTAGANTTTTNGSSPGASPTGAAGASTAISNGGAGGDYSHSNHNSNSAGNNTVEARLGGGISMHSMMNGGVVDQNGVATNQVLGGDRICFNFGRDLYVYSFRGAKKGTEMSKPIDKKFYKGTNPSCHDFNISSATPTGAPLLVGFTTGQIQLVSPHVGPREVRKLFNEERLIDKTKVTCLKWLPNSPHLFLAAHASGHLYLYNEELPCAATAPSYQPFKLGDGYTILTSKSKTTRNPLFKWVFSTDNCCVNEFCFSPCGSHLAVVSQDGFLRVFHYDTMELLGIARSYFGGFLCVCWSPDGKYIVVGGEDDLVTVWSLHERRVVARGQGHRSWVSVVAFDPYTTSYTNWDGGDFSDDENQMNEYSHSREARFSGDSTANGGFEGFDRNSTPVHADRNGPHSASFRSDASSAEKLMSYRLGSVSQDTQICLWDITEDVLRHPLVLRQPANSERAYLNGGVDEEAEAEDGIKVIRPVAMSGQATGQQAESGSCSPTREAAGGGTGNGAGEHSNSSSSKFSTANCTISSQSSPDDCDTEAATPASTSSNAGAGSVAGAGAVASTKQNNRNHGTGNSIKFPNCISATKSDSIDGGGGSGSGQRPSQTTSGYNSKTSNSSNKSSNSGSGFSAFNSLTQRLSNFSFLSSSEKKGAGYEGSHSTAHRQHRKAMSMLKSYNQHNHTGGHNNHSQSNNSSSSNFGHSSTLDSNAAGAIGSSSTAHSFGSLKLSRSSHHSSLATAAHASGSAAGSGSGVSSFDPMQLIGTPACPRFDECPLLEPLVCKKIAHERLTALIFREDCFLTACQDGFIYTWARPGHATHATQHLSPGQAAAPGGTVI | failed
MANVSLNKVDKQALVHQPNLLRECFALLVNAHYQTSPNDLLHLLRDDNSSVYLAMDKQNIIGVILTVEEGGLDDELIEAIQLGQRRPKGHLTPITIINQLGLVKVGKLITSRVMRIAVHPDLQGSGIGKRMLTLLEESVGAHVDYLSTSFGATDELIQFWQQAGYQSIRLGTMRDAASGCYSLLMVRQLANKSQ | failed
MANWLNQLQSLLGQSSSSTSSSADQGLGKLLVSGALGGLAGLLVANKSARKLLTKYGTNALLVGGGAVAGTVLWNKYKDKIRAAHQDEPQFGAQSTPLDERTERLILALVFAAKSDGHIDANERAAIDQQLREAGVEEQGRVLIEQAIEQPLDPQRLATGVRNEEEALEIYFLSCAAIDIDHFMERSYLNALGDALKIPQDVREGIERDLEQQKRTLAE | failed
MANWRGAGDSLSTGTGGSEAPPRKSPARLHQWRKLRVSHDDRTCPYQRCRHHLLRRIADARRRYRLLCRRSEHEHSRRVDRSFAEARHGRRRPGRCRSSHPQGCGHRQRDPHKIMSAAPAAPALDALGPDTPAHTVDAFHRGRFWLVQPKHGGHRAGMDAMMLAASVPSVFGGRLADFGAGAGAAGLAVLSRCPAARAVLVERAPEMAAFASATLAHPGNAHLSDRASVLVADVTVSGQARVAAGLADNDFDYVIMNPPFNAARDRATPDRLRKEAHVMEDGLFESWIRSAAAVVRPRGGLAVIARPEQLGAILDAMSGRFGDAEMLAVHPRPDAAAIRIIVRAALGARGKLAIRPPLMLHAQAGNGPDERSEMITNGLASLFGD | failed
MAPAKSPRAWQRMLSGRRLDLLDPSPLDVEIADIAHGLARVARWNGQTRGDHAFTVAQHCLIVETIFCRMCPGATPDEMQMALLHDAPEYVIGDMISPFKSVVGGGYKTVEKRLEAAVHLRFGLPPHASRELKDRIKKADTVAAFFEATELAGFSTAEAQKFFGLPRGITRDMFDIIPLPSTEAQRLFIARFEAIETLRVTRTGGAV | not failed
MAPDNDHFLDSPSPPLLEMRHHQSATENGGGCGEIVEVQGGHIVRSTGRKDRHSKVCTAKGPRDRRVRLSAPTAIQFYDVQDRLGFDRPSKAVDWLITKAKSAIDDLAQLPPWNPADTLRQHAAAAANAKPRKTKTLISPPPPQPEETEHHRIGEEEDNESSFLPASMDSDSIADTIKSFFPVASTQQSYHHQPPSRGNTQNQDLLRLSLQSFQNGPPFPNQTEPALFSGQSNNQLAFDSSTASWEQSHQSPEFGKIQRLVSWNNVGAAESAGSTGGFVFASPSSLHPVYSQSQLLSQRGPLQSINTPMIRAWFDPHHHHHHHQQSMTTDDLHHHHPYHIPPGIHQSAIPGIAFASSGEFSGFRIPARFQGEQEEHGGDNKPSSASSDSRH | failed
